From paper PMC10276540

Target: Ultramarine fluorescent protein
Test: AUC

stoichiometry N: 2
Substance: Ultramarine fluorescent protein
